Source: patent US20240400717A1, “Antibody Binding to CHI3L1 for Treating Cancer” (National Cheng Kung University, priority 2021, published 2024)

B1: R4-4: fully human anti-CHI3L1 IgG1 mAb, Table 1 No. 9; heavy chain SEQ ID NO: 9, light chain SEQ ID NO: 10 (antibody, listed as Homo sapiens)
VH: EVQLLESGGGLLQPGGSLRLSCAASGLTFRNYAMTWVRQAPGKGLEWVSTISGNGDETFYADSVKGHFTISRDNSKDTVYLQMNSLRAEDTAVYYCAKGGHYSFFDSWGQGSPVTVSS
light: NFMLTQPHSVSESPGKTVTISCTRSSGSIASNYVQWYQQRPGSSPTTVIYEDNQRPSGVPDRFSGSIDSSSNSASLTISGLKTEDEADYYCQSYDSSNYVFGTGTKVTVLGQPKANPTVTLFPPSSEELQANKATLVCLISDFYPGAVTVAWKADGSPVKAGVETTKPSKQSNNKYAASSYLSLTPEQWKSHRSYSCQVTHEGSTVEKTVAPAECS
B2: R4-54: fully human anti-CHI3L1 IgG1 mAb, Table 1 No. 34; heavy chain SEQ ID NO: 33, light chain SEQ ID NO: 34 (antibody, listed as Homo sapiens)
VH: QVQLVESGGGVVQPGRSLRLSCAASGFTFSSYGMHWVRQAPGKGLEWVAVISYDGSDKDYADSVKGRFTISRDNSKNTLFLQMNSLRAEDTAVYYCARDDYDSTYYFDNWGQGTTVTVSS
light: SYELTQPPSVSVSPGQTASITCSGDILADQYASWYQQKPGQSPVLVIYHDTKRPSGVPERFSGSTSGNTATLTISGTQAMDEAAYYCQAWDINTAWVFGGGTQLTVLGQPKAAPSVTLFPPSSEELQANKATLVCLISDFYPGAVTVAWKADSSPVKAGVETTTPSKQSNNKYAASSYLSLTPEQWKSHRSYSCQVTHEGSTVEKTVAPTECS
B3: 293R3-4: fully human anti-CHI3L1 IgG1 mAb, Table 1 No. 4; heavy chain SEQ ID NO: 73, light chain SEQ ID NO: 74 (antibody, listed as Homo sapiens)
VH: EVQLVQSGAEVKKPGATVKISCKVSGYSFTDYYIHWVQQAPGKGLEWMGFVDPENGETIYAEKFQGRVTITADTSTDTAYMELSSLRSDDTAVYYCATDRDYDDSSGNAFDIWGQGTMVTVSS
light: SYELTQPPSVSVSTGQTATITCSGDILGDEYAFWYQQKAGQSPVLVIYLDTRRPSGIPERFSGSNSGDTATLTISETQPVDEAVYFCQGWDSSTALYVFGTGTKVTVLGQPKANPTVTLFPPSSEELQANKATLVCLISDFYPGAVTVAWKADGSPVKAGVETTKPSKQSNNKYAASSYLSLTPEQWKSHRSYSCQVTHEGSTVEKTVAPTECS
B4: 293R3-2: fully human anti-CHI3L1 IgG1 mAb, Table 1 No. 2; heavy chain SEQ ID NO: 65, light chain SEQ ID NO: 66 (antibody, listed as Homo sapiens)
VH: QVQLQESGPGLVEPSGTLSLTCAVSGGSISSSNWWSWVRQHPGKGLEWIGEIYHSGSTNYNPSLRSRVTISVDKSKNQFSLELSSVTAADTAVYYCAGDQRMEDDAFDIWGQGTMVTVSS
light: QSALTQPASVSGSPGQSITISCTGTSSDVGGYNYVSWYQQHPGKAPKLMIYDVSNRPSGVSNRFSGSKSGNTASLTISGLQAEDEADYYCSSYTSSSTLYVFGTGTKVTVLGQPKANPTVTLFPPSSEELQANKATLVCLISDFYPGAVTVAWKADGSPVKAGVETTKPSKQSNNKYAASSYLSLTPEQWKSHRSYSCQVTHEGSTVEKTVAPTECS

Assays:
[1] = biological target: recombinant CHI3L1 protein (Homo sapiens, UniProt P36222); test: ELISA binding specificity, CHI3L1; details: mAbs 1 μg/ml; coated protein 2.5 μg/ml to 0 μg/ml
recombinant CHI3L1 protein, sequence (P36222 22-383): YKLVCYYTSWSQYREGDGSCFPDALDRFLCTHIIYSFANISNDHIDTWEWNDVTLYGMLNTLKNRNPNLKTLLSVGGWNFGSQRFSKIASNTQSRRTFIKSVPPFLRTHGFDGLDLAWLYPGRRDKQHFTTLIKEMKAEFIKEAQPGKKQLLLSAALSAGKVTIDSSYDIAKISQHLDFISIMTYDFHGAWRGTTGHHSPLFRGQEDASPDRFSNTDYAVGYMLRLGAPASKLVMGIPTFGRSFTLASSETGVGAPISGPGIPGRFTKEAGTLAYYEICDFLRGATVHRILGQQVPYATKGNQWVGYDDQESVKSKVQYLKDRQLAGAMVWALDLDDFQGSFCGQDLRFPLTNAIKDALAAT
Method: Four selected clones of mAbs including R4-4, R4-54, 293R3-2, and 293R3-4 were further tested for blocking effect on human colorectal (HCT116, SW480, and SW620) and pancreatic cancer cell lines (PANC1 and MiaPaCa-2). […] P values were determined by one-way ANOVA. * P<0.05, ** P<0.01, *** P<0.001, **** P<0.0001. For binding specificity examination, we further coated different concentration of recombinant CHI3L1 protein, and two other major proteins in chitinase family including human chitotriosidase-1 (CHIT1) and CHI3L2 from 2.5 μg/ml to 0 μg/ml, on 96-well plate.

hCHI3L1/flag-His = biological target: T1, hCHI3L1/flag-His (Homo sapiens, UniProt P36222); test: ForteBio biolayer interferometry binding analysis; details: for koff / kon: mAb loaded on AHC sensor, analyte hCHI3L1
T1 construct: human CHI3L1 extracellular domain fused with flag and His tag
T1 sequence (P36222 22-383): as above
Method: Anti-CHI3L1 mAbs were loaded at 5 μg/mL on AHC (Anti-Human IgG Fc Capture, ForteBio, Cat #18-5060) for signal reach to approximate 0.5 nm. Sensors then were exposed to human CHI3L1 extracellular domain fused with flag and His tag recombinant protein, hCHI3L1/flag-His, solutions at 10 nM with 2 time serial dilution for 7 concentrations. Measurement were performed as follows: 1 min baseline in kinetic buffer, 5 minute association in 7 different concentrations hCHI3L1/flag-His and 5 minute dissociation into kinetic buffer. The kinetic parameters were calculated and produced by Octet Data Acquisition and Analysis Software.

PANC1 and H460 cells = test: CCK-8 cell viability assay with rCHI3L1; format: cell-based, human; details: PANC1 and H460, rCHI3L1 with mAbs at two doses
Method: PI3K/AKT/mTOR signaling pathway is important in regulating cell proliferation, survival and migration (Xu et al. 2020). Therefore, we investigated the effect of four selected mAbs on cancer cell behaviors. Human pancreatic (PANC1) and large cell cancer of the lung (H460) cells were treated with rCHI3L1 only or together with mAbs at two doses, and then subjected to cell counting kit 8 (CCK-8) cell viability assay. […] P values were determined by one-way ANOVA. * P<0.05, ** P<0.01, *** P<0.001, **** P<0.0001.

MiaPaCa-2 cells = test: MiaPaCa-2 subcutaneous xenograft NOD-SCID mice, efficacy and toxicity; format: in vivo; details: for histology of liver, lung and kidney / mice body weight / serum level of GOT, GPT, BUN, albumin and creatinine: 5 mg/kg i.v.; for growth of MiaPaCa-2 subcutaneous xenografts: 5 mg/kg i.v. day 7, 14, 21, sacrificed day 28; for mice body weight / serum level of GOT, GPT, BUN, albumin and creatinine: vs IgG control
Method: Next, we examined whether our mAb clones R4-4 and R4-54 exert any toxicity in vivo. We performed a xenograft model by subcutaneously implanting MiaPaCa-2 cells to NOD-SCID mice. The mice were i.v. injected with IgG isotype, mAb clone R4-4, or clone R4-54 (5 mg/kg) once a week starting from day 7 to day 21, that is, day 7, day 14, and day 21, and mice were sacrificed on day 28. […] To evaluate the potential safety of our developed mAbs, we examined body weight, serum biochemical markers and histology sections of three major organs of tumor-bearing mice. […] Scale bar 100 μm. P values were determined by one-way ANOVA. * P<0.05, ** P<0.01, *** P<0.001, **** P<0.0001.

HCT116 and A549 cells = test: Immunoblot of rCHI3L1-induced AKT and ERK phosphorylation, HCT116 and A549; format: cell-based, human; details: HCT116 and A549, time course
Method: The involvement of CHI3L1 in intracellular signaling pathways has been reported. For example, CHI3L1 binding to CD44 activates protein kinase B (AKT) and extracellular signal-regulated kinase (ERK) signaling to promote cancer progression (Chen, Jiang et al. 2021). Thus, we tested whether mAb clones R4-4, R4-54, 293R3-2, and 293R3-4 could attenuate AKT and ERK phosphorylation in human pancreatic (PANC1), colorectal (HCT116), and lung (A549) cancer cell lines. PANC1 cells were treated with rCHI3L1 (100 ng/ml) only or rCHI3L1 with different dose of mAbs as indicated for 20 minutes.

[2] = biological target: T2, CHI3L1 binding to IL-13Rα2 on A549 cell line (Homo sapiens, UniProt P36222); test: Functional screen: block of CHI3L1 binding to IL-13Rα2 on A549 cell line; format: cell-based; details: A549 cells, compared with CHI3L1 only
T2 construct: host or cells: A549 cells carry the receptor
T2 sequence (P36222 22-383): as above
Description: CHI3L1 is known to associate with different receptors, such as IL-13Rα2 (He et al. 2013), CRTH2 (Zhou et al. 2015), TMEM219 (Lee et al. 2016), and galectin-3 (Zhou et al. 2015). […] Therefore, purified antibody leads were functionally screened for their ability to block CHI3L1 binding to IL-13Rα2 on A549 cell line (FIG. 3A). […] The sequences and defied CDR regions among those monoclonal antibodies are listed and summarized in the sequences list (SEQ ID NOs: 1 to 88) and Table 2, respectively. Anti-CHI3L1 clone R4-2 heavy chain (SEQ ID NO: 1), anti-CHI3L1 clone R4-2 light chain (SEQ ID NO: 2), anti-CHI3L1 clone R4-4 heavy chain (SEQ ID NO: 9), anti-CHI3L1 clone R4-4 light chain (SEQ ID NO: 10), anti-CHI3L1 clone R4-39 heavy chain (SEQ ID NO: 17), anti-CHI3L1 clone R4-39 light chain (SEQ ID NO: 18), anti-CHI3L1 clone R4-53 heavy chain (SEQ ID NO: 25), anti-CHI3L1 clone R4-53 light chain (SEQ ID NO: 26), anti-CHI3L1 clone R4-54 heavy chain (SEQ ID NO: 33), anti-CHI3L1 clone R4-54 light chain (SEQ ID NO: 34), anti-CHI3L1 clone R4-62 heavy chain (SEQ ID NO: 41), anti-CHI3L1 clone R4-62 light chain (SEQ ID NO: 42), anti-CHI3L1 clone R4-63 heavy chain (SEQ ID NO: 49), anti-CHI3L1 clone R4-63 light chain (SEQ ID NO: 50), anti-CHI3L1 clone R4-93 heavy chain (SEQ ID NO: 57), anti-CHI3L1 clone R4-93 light chain (SEQ ID NO: 58), anti-CHI3L1 clone 293R3-2 heavy chain (SEQ ID NO: 65), anti-CHI3L1 clone 293R3-2 light chain (SEQ ID NO: 66), anti-CHI3L1 clone 293R3-4 heavy chain (SEQ ID NO: 73), anti-CHI3L1 clone 293R3-4 light chain (SEQ ID NO: 74), anti-CHI3L1 clone 293R3-5 heavy chain (SEQ ID NO: 81), and anti-CHI3L1 clone 293R3-5 light chain (SEQ ID NO: 82) are shown in sequence listing.

Row | Molecule | binding specificity: recognition of CHI3L1 [1] | binding kinetics profile compare to other mAbs (hCHI3L1/flag-His) | koff (hCHI3L1/flag-His) | cell viability (CCK-8) (PANC1 and H460 cells) | histology of liver, lung and kidney (MiaPaCa-2 cells) | growth of MiaPaCa-2 subcutaneous xenografts (MiaPaCa-2 cells) | mice body weight (MiaPaCa-2 cells) | serum level of GOT, GPT, BUN, albumin and creatinine (MiaPaCa-2 cells) | p-AKT and p-ERK levels induced by rCHI3L1 (HCT116 and A549 cells) | CHI3L1 neutralizing activity [2] | kon (hCHI3L1/flag-His)
1 | B1 | specifically recognized CHI3L1 | slower on-rate (kon) and off-rate (koff) | 0.000353 s⁻¹ | reduced the viability | no significant adverse effects | significantly delayed the growth | no significant change in mice body weight | No obvious difference | Inhibition of p-AKT and p-ERK |  | 
2 | B2 | specifically recognized CHI3L1 |  | 0.0065 s⁻¹ | reduced the viability | no significant adverse effects | significantly delayed the growth | no significant change in mice body weight | No obvious difference | Inhibition of p-AKT and p-ERK | best neutralizing activity | 1.54e+06 M⁻¹ s⁻¹
3 | B3 | specifically recognized CHI3L1 |  | 0.00722 s⁻¹ | reduced the viability |  |  |  |  | Inhibition of p-AKT and p-ERK | best neutralizing activity | 1.83e+06 M⁻¹ s⁻¹
4 | B4 | specifically recognized CHI3L1 |  | 0.00302 s⁻¹ | reduced the viability |  |  |  |  | Inhibition of p-AKT and p-ERK | best neutralizing activity | 1.08e+06 M⁻¹ s⁻¹
